Target: the molecule itself
Test: crystal structure

| Protein | binding result |
| --- | --- |
| Fluoroacetate dehalogenase (FAcD) wild type (enzyme, Rhodopseudomonas palustris, UniProt Q6NAM1 1-302, looked up) MPDLADLFPGFGSEWINTSSGRIFARVGGDGPPLLLLHGFPQTHVMWHRVAPKLAERFKVIVADLPGYGWSDMPESDEQHTPYTKRAMAKQLIEAMEQLGHVHFALAGHDRGARVSYRLALDSPGRLSKLAVLDILPTYEYWQRMNRAYALKIYHWSFLAQPAPLPENLLGGDPDFYVKAKLASWTRAGDLSAFDPRAVEHYRIAFADPMRRHVMCEDYRAGAYADFEHDKIDVEAGNKIPVPMLALWGASGIAQSAATPLDVWRKWASDVQGAPIESGHFLPEEAPDQTAEALVRFFSAAP | binds |
| Fluoroacetate dehalogenase (FAcD) Ser157Ala (enzyme, Rhodopseudomonas palustris, UniProt Q6NAM1 1-302, looked up) MPDLADLFPGFGSEWINTSSGRIFARVGGDGPPLLLLHGFPQTHVMWHRVAPKLAERFKVIVADLPGYGWSDMPESDEQHTPYTKRAMAKQLIEAMEQLGHVHFALAGHDRGARVSYRLALDSPGRLSKLAVLDILPTYEYWQRMNRAYALKIYHWAFLAQPAPLPENLLGGDPDFYVKAKLASWTRAGDLSAFDPRAVEHYRIAFADPMRRHVMCEDYRAGAYADFEHDKIDVEAGNKIPVPMLALWGASGIAQSAATPLDVWRKWASDVQGAPIESGHFLPEEAPDQTAEALVRFFSAAP | binds |
| Fluoroacetate dehalogenase (FAcD) Ser157Thr (enzyme, Rhodopseudomonas palustris, UniProt Q6NAM1 1-302, looked up) MPDLADLFPGFGSEWINTSSGRIFARVGGDGPPLLLLHGFPQTHVMWHRVAPKLAERFKVIVADLPGYGWSDMPESDEQHTPYTKRAMAKQLIEAMEQLGHVHFALAGHDRGARVSYRLALDSPGRLSKLAVLDILPTYEYWQRMNRAYALKIYHWTFLAQPAPLPENLLGGDPDFYVKAKLASWTRAGDLSAFDPRAVEHYRIAFADPMRRHVMCEDYRAGAYADFEHDKIDVEAGNKIPVPMLALWGASGIAQSAATPLDVWRKWASDVQGAPIESGHFLPEEAPDQTAEALVRFFSAAP | binds |
